Assay results as given in patent US20230257458A1 (SUNSHINE LAKE PHARMA, published 2023).

Tests used:
[1] = molecular target: T1, recombinant IL-11 (LSBio, LS-G132887-10) (UniProt P20809 22-199); assay: ELISA, cytokine coated
T1 construct: also called IL-11 cytokine
T1 sequence (looked up): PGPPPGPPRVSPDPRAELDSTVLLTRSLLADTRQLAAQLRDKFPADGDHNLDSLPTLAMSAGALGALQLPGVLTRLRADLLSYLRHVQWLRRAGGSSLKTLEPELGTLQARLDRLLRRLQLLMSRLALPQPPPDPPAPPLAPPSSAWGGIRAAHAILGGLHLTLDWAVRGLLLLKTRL

[2] = molecular target: T2, recombinant CNTF (R&D systems, 257-NT-010) (UniProt P26441 2-200); assay: ELISA, cytokine coated
T2 sequence (looked up): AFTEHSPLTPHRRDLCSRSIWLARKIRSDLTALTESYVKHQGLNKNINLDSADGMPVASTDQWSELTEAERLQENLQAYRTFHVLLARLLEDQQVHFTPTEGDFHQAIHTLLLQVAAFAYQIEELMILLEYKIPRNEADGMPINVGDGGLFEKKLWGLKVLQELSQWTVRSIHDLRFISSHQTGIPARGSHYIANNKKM

[3] = molecular target: T3, recombinant CT-1 (R&D systems, 612-CD-010) (UniProt Q16619 2-201, limits assumed); assay: ELISA, cytokine coated
T3 sequence (looked up): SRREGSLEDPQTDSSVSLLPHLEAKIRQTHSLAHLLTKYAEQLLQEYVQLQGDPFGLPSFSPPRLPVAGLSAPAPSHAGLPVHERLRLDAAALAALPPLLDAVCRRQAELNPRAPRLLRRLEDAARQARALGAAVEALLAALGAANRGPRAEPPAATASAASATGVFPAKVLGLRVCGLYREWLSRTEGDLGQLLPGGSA

[4] = molecular target: recombinant LIF (Peprotech, 300-05) (UniProt P15018 23-202); assay: ELISA, cytokine coated
recombinant LIF (Peprotech, 300-05), sequence (P15018 23-202 limits assumed): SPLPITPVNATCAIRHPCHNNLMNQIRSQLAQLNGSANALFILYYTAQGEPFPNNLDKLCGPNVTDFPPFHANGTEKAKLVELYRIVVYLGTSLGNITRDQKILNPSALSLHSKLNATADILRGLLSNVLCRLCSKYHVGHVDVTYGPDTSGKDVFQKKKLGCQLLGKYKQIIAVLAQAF

[5] = molecular target: T4, recombinant OSM (Genscript-z03132) (UniProt P13725 26-234, limits assumed); assay: ELISA, cytokine coated
T4 sequence (looked up): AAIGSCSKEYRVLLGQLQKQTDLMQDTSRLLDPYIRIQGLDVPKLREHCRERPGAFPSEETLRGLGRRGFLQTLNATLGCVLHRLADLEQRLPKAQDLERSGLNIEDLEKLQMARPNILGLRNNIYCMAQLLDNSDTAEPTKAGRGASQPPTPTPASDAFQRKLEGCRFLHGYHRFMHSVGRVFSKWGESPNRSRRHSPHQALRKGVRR

[6] = molecular target: recombinant IL-6 (Sinobiological-10395-HNAE) (UniProt P05231 30-212); assay: ELISA, cytokine coated
[7] = molecular target: T5, recombinant IL-27 (R&D systems, 2526-IL-010) (UniProt Q8NEV9 29-243; Q14213 21-229); assay: ELISA, cytokine coated
T5 sequence (looked up) 1: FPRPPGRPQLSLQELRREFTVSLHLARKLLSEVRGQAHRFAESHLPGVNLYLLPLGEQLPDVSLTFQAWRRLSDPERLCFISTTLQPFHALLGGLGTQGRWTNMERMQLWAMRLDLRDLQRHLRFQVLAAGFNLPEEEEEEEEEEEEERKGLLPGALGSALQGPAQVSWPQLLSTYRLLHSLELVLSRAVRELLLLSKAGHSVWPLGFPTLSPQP
T5 sequence (looked up) 2: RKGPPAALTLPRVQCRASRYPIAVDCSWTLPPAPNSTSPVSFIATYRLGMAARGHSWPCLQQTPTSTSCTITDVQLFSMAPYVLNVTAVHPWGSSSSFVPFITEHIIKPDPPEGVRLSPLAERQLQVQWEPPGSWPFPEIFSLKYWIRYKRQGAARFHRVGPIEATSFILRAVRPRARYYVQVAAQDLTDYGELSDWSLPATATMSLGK

[8] = molecular target: T6, recombinant CLC (R&D systems, 962-CL-050) (UniProt Q9UBD9 28-225); assay: ELISA, cytokine coated
T6 sequence (looked up): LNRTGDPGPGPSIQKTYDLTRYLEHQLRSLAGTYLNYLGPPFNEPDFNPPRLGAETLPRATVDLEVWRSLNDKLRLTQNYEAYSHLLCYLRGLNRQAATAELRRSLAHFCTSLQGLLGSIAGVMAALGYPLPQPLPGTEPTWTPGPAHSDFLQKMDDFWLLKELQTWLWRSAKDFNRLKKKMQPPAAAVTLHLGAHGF

[9] = molecular target: T7, recombinant IL-31 (Peprotech, 200-31) (UniProt Q6EBC2 24-164); assay: ELISA, cytokine coated
T7 sequence (looked up): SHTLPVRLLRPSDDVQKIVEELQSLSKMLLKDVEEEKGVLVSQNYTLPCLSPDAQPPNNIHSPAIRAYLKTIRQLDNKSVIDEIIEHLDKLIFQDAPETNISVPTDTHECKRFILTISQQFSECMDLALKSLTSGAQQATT

IL-11 protein [10] = molecular target: T8, IL-11 protein (UniProt P20809 22-199, limits assumed); assay: ELISA, monoclonal hybridoma supernatant on IL-11
T8 construct: also called IL-11 antigen
T8 sequence (looked up): T1 sequence (looked up)
Text: (§1) Cell lines with high secretion of specific antibody were selected for expanded culture and cryopreservation.

IL-11-Fc protein = molecular target: T9, IL-11-Fc protein (UniProt P20809 22-199, limits assumed); assay: flow competition: IL-11-Fc + antibody dilutions on membrane-IL-11R CHO cells
T9 construct: also called IL-11 recombinant protein with Fc tag; not shown: Fc tag
T9 sequence (looked up): T1 sequence (looked up)
Protocol: Then the plate was incubated with 1.5*10\hat{ }5 membrane-IL-11R CHO cells (100 ul/well) for 1 h at room temperature. After incubation, the plate was centrifuged at 1500 rpm for 5 min, washed three times with PBS, and 1:400 diluted flow secondary antibody Goat-anti-Fc-FITC (Abcam, ab98529) was added with 200 ul/well. Then, the plate was incubated at 4° C. for 1 h, centrifuged at 1500 rpm for 5 min, washed three times with PBS, resuspended cells in 180 ul PBS, and detected by flow cytometry.

IL-11 protein [11] = molecular target: T8, IL-11 protein; assay: flow competition: IL-11 + antibody on IL-11R cells; lower = more blocking
Text: as §1

IL-11 protein [12] = molecular target: T8, IL-11 protein; assay: SPR (Biacore), antibody captured, 400 nM IL-11 as analyte
Protocol: The measure method included the steps of capturing the humanized antibody at a flow rate of 10 ul/min. […] Finally the chip was regenerated with 10 mM glycine buffer.

- OD450 nm [1]: 1.93
- OD450 nm [2]: 0.036
- OD450 nm [3]: 0.034
- OD450 nm [4]: 0.037
- OD450 nm [5]: 0.045
- OD450 nm [6]: 0.049
- OD450 nm [7]: 0.048
- OD450 nm [8]: 0.033
- OD450 nm [9]: 0.036
- OD450 (IL-11 protein [10]): 1.6
- EC50 (IL-11-Fc protein): 7.54 µg/mL
- FITC Mean (IL-11 protein [11]): 3110
- Kd (IL-11 protein [12]): 2.09 nM
- koff (IL-11 protein [12]): 0.000122 s⁻¹
- kon (IL-11 protein [12]): 58400 M⁻¹ s⁻¹
B1: 5-20E11-5F2 (antibody, human IgG1, kappa, V domains shown)
VH: QVQLQQSGAELVRPGTSAKISCKASDYTFTNYWLGWLKQRPGHGLEWIGHIYPGGGYTNYNEKFKGKATLTADTSSSTAYMQLSSLTSEDSAVYFCARVRSGNDALDFWGQGTSVTVSS
VL: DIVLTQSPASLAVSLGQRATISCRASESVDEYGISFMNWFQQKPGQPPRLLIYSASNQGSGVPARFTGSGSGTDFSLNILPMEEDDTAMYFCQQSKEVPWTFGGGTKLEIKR
notes: also called 5-20E11-5F2 antibody; 5-20E11-5F2 mAb
